Results taken from patent US20180104307A1 (University of California, published 2018).

B1: GST-GIV-CT (amino acids 1660-1870) (other)
chain: ETLESRHHKIKTGSPGSEVVTLQQFLEESNKLTSVQIKSSSQENLLDEVMKSLSVSSDFLGKDKPVSCGLARSVSGKTPGDFYDRRTTKPEFLRPGPRKTEDTYFISSAGKPTPGTQGKIKLVKESSLSRQSKDSNPYATLPRASSVISTAEGTTRRTSIHDFLTKDSRLPISVDSPPAAADSNTTAASNVDKVQESRNSKSRSREQQSS
notes: Immobilised on glutathione-agarose beads; also called GST-tagged GIV-CT peptide; not shown: glutathione S-transferase tag
B2: TAT-GIV-CT-F1685A (peptide)
chain: MRGSHHHHHHGMASMTGGQQMGRDLYDDDDKDRWGSKLGYGRKKRRQRRRGGSTMSGYPYDVPDYAGSMGGSGHSGETLESRHHKIKTGSPGSEVVTLQQALEESNKLTSVQIKSSSQENLLDEVMKSLSVSSDFLGKDKPVSCGLARSVSGKTPGDFYDRRTTKPEFLRPGPRKTEDTYFISSAGKPTPGTQGKIKLVKESSLSRQSKDSNPYATLPRASSVISTAEGTTRRTSIHDFLTKDSRLPISVDSPPAAADSNTTAASNVDKVQESRNSKSRSREQQSS
notes: Recombinant, made in E. coli; GEF-deficient mutant; also called TAT-GIV-CT-FA; FA

Experiments:
His-Gαi3 (GDP-loaded) = molecular target: T1, His-Gαi3 (GDP-loaded) (UniProt P08753 1-354); experiment: GST pulldown: GST-GIV-CT on glutathione-agarose beads with 0.01-3 µM His-Gαi3; anti-His band intensities fitted to a single-site hyperbola; three experiments
T1 construct: Purified protein, GDP-loaded

GST-Gαi3 (GDP loaded) = molecular target: T2, GST-Gαi3 (GDP loaded) (rat, UniProt P08753 1-354); experiment: GST pulldown with GDP-loaded GST-Gαi3, anti-His immunoblot
T2 construct: not shown: glutathione S-transferase tag encoded by pGEX-4T-1
T2 sequence (P08753 whole entry): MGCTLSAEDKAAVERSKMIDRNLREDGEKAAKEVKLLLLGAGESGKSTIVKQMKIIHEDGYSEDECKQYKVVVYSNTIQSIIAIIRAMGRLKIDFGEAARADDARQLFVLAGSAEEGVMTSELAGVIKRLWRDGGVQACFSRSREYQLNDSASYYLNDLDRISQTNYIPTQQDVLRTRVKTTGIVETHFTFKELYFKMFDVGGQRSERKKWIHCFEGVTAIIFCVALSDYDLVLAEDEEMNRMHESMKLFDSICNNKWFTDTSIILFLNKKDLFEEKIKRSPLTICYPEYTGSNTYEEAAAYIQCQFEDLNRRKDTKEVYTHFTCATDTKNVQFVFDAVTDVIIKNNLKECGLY

T1 sequence (P08753 whole entry): as above

Binder	Kd (His-Gαi3 (GDP-loaded)) [nM]	binding result (GST-Gαi3 (GDP loaded))
B1	240	
B2		no binding
